# Data reported in the supplement of paper PMC12636428.
# Test system: Saccharomyces cerevisiae
# Assay: transcriptional activation domain activity (GFP:mCherry ratio, weighted mean of sorted bins, harmonized to initial dataset scale) (arbitrary fluorescence ratio units); higher = stronger transcriptional activation
# Conditions: beta-estradiol 1 µM; induction time 4 h
# Procedure, shortened: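 After a 1:5 dilution into SC with 1 uM beta-estradiol and 4 hours at 30 °C, yeast diploids carrying a GFP reporter and URA3-integrated barcoded tiles were sorted into 8 bins by GFP:mCherry ratio. The tiles were fused to an estradiol-inducible synthetic transcription factor. Barcodes were sequenced, tiles below 50 reads were discarded, and activation activity was taken as the read-weighted mean of bin median fluorescence, averaged across barcodes and linearly mapped onto the initial dataset scale.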
row,Sequence,transcriptional activation domain activity
1,LLLLPVSFLVLSGIYSPFILILFDSPWPVLYVLIYFPLCYFVLSPYIIFALSP,51200
2,LLLLYGLTWAFNLIACMLTSTNNGNMVSCILTNFNCIIVYTITKIILYLYFVE,43200
3,LLLPELFFFHLYWALIAFRFIPLLTLLRGMGYCLFFSLLFFFLFFSLFSVLFT,53000
4,LLLPFVVRRFGCWVCGFYLVLLFFIFPLLLYVVLSSCFSILFTSPFIFYFSSF,61200
5,LLLPLLLPVLHIFPFLIDFLLPVLDLLLALLVLLPALLDLLLVLLVLLPPLLP,56100
6,LLLRGSTFSFLLSSFLHFFIALVNCMLYTPPKFFKNPFCMFILFYLSYLLWGT,66000
7,LLLRSFKTFQLWTGDQCLEYLGDKFRVVLGLPDDWTNKDLGYWLLSKLVLVHL,73000
8,LLLVHGRWSYQRVADMHSNFFYKNVIWTFALFWYLPFNSFDATYLYQYTFILL,47600
9,LLLYLLQLVQALKYEHISTEANRDATQKSSLARFLIARAVDSFMLGNYFYWYL,59400
10,LLMGLYLSEICMIGLFVLRDAFGPMVLMVMFFVLSILVHLSLADAFSPLLYNL,52200
11,LLMYTLFYMISEIFYSVAYDAHYFMFDPISVALVQCPMFACVVISVLYGHIWS,57800
12,LLNIGNGGVPKNTNVHLGAQFFYLSFLEFILSCLTLCSRSWAWFHVVCVVHLR,62300
13,LLNNELFQGPSLSDEVTDWFGASEDIGLEFVEPWTELIEQRYMQCGDGDNNNF,151000
14,LLNVHVCVIYFVGWIVSLFQFCQIAIQQPTLDWVHCLPYILRVLLGFDLVYVT,66100
15,LLPGPPFPFPPLLLFFLVVFLSCSFFELSFMFLFFVYFFFISLFFCIFFFDNH,34700
16,LLPKSFPYSFFILFFFFLNFLLSSCFFLLFFPSPIRLSPSFTLVVIFHYFLRF,51500
17,LLPLFFASIGFAIVSMILIFSSNVVCLLICPHQALSRIVASYLLRHDPKYLCA,71600
18,LLQKVAIQHYHTGLRALIPWSQLTVLVIASIPSQQCVRVLALAVNLLYCEFAI,67000
19,LLQLWYMHKSLVLADPTLVCPLAFCFYNLSSIINGLVYFDQFAFLSTLHLLLV,25400
20,LLQMDKAGFVKDEITDVFALVVCRNLSLFHICAYILNVYRNYIMMVLEALRAQ,64800
21,LLQSLKRTTEIPVKDAFLGLLRADACFCIYRMLRCTNVNLPICRLTGLLDVIR,61400

row,Sequence,transcriptional activation domain activity
1,LLQSSKEDIPFINANLAFPDDNSTNIQLQPFSESQSQNKFDYDMFFRDSSKEG,80700
2,LLRALSDLRRWRRKYTMLLELPDPFKSQRQHAHEYQLAIPLVEEAVLSFFLFL,57600
3,LLRAYGRCLAPFPELVTQAYTWFRSWGTSEFRPLTVALLLVTYMQRSPEIKAP,70700
4,LLRFSLLLMFPWLVCLVSCFPCFPLLLPTSCATRFRFLHPFLTVSLLSLLFLC,56800
5,LLRLLQCVFVAALLLVSKLCTFTEMMPDVVLRQFLVVAIDILFYGKLTIVPWN,54600
6,LLRQQLVYTNHIYLYYFAIISNTLIRFIWILYIPARGPDIILRTFIAALFEML,54200
7,LLRRIMRYRNMHLLLSYAVELGFLRAIILCGRPSLSKVHHHVRFFLRDLLPAS,38800
8,LLRSRAYDDPAVFRIISALFQVPMRHKKNSVRGLLCVVWRVITWVYFQPRLPW,54600
9,LLSEESLRTMGLRTVKDILLRCASERAILTLVDFPLRVLVMVAQIRTGLWVRN,36800
10,LLSGRLFLGFYAAKNILRLARAFAATRQVIYDLGKFYRSPLTAPDRIAHLFPS,47000
11,LLSLPNYFGIVFQVLKPEITTMYIAALDLCNLHTLYKAILFTLLALTWLILVF,50500
12,LLSVCVGKNCTVPSPLNSFDRSFYPIGCTNLSNDIPGYSFLNDAMSEIHTFGD,82000
13,LLTEHFLLRVFAVFTAYIVELWMLKVAYLGYYFQLRQYLSEKSRMIYIGTCVY,63300
14,LLTFKLHRLFVVSQKMEDEGVRKLILHLTCCLLPKPNRDSMEAICLFLRWVAS,83200
15,LLTFLLFSIFFFERLPHLYRSISLLLRPCFRLNIHFIFLILSRVFMYGSYGSF,55300
16,LLTFNLEVKRIWTLRWKLPKYLFVLNRYILPPFLFFEAFSNITYNLGKHVSRI,50800
17,LLTGSSALLLPVIWPRLSASLRFPVVLLLPLPYIFTYLCVYPPTPFSPHITPT,59300
18,LLTWMPTVAWPMYNRCFGSLIWIPIRYELIAIVILSIITFFFLFLAALISIQL,43300
19,LLTYKLYRLWIVAAKITDDEKRKQCLHLTCCLLPKCHRDSLEILFYFLKWAGT,50700
20,LLVANLTILDTFGLEESAIRIWNVCKPLGHLGQNALLILMLRLKDTMLIPWPL,72200
21,LLVFGFEEHFFFFIFFFLVDGSAFCMFCDVFHFYVCCYVPHLLCLTLVIAGVS,73000

row,Sequence,transcriptional activation domain activity
1,LLVFICAAPYAAYREGNNLIVSSYFCSSFLVFNFYMRLDCGLSWMKHTLLFIV,44700
2,LLVLFACQIICETIVIGITSNAFSVVVLPPYFTGCLPGNIKPFAWVYWLPMLL,59400
3,LLVLLLVLLLVLLLILLLILLILLVYLLLLLLLVLLFFLLLLLLLFTFILHFL,46200
4,LLVLLVFVADTLHMMGTTQFYWSMLVLCRRSDAAMCEAGLSWGSSISFPMNYV,42600
5,LLVLYGLTWAFNLISCMLISTNNGNYISCILGLFNCVFVYTLTKMILYLYFIE,57000
6,LLVLYLVLSYLKHSHMEGLGEFMIKFFEECNVDPFSKVFRGGHYKESVFEGVY,76100
7,LLVRIIGRCGFLGASFQVALLSDYISIMTLHIYWFYAVAARIYFWQLSILHSL,43100
8,LLVRLRKEYYLALFIFWRVGYNVLLGLMLRSQSDWNLLVRFAKRYGFGQNAGK,48800
9,LLVTLMQVPDTDQVVLFNKVLSVIVLVMAHHHELGGPRFDQRPFLRLFSSILA,43800
10,LLWFYFLFLFCIFCWWLRYASSLVPNICHIHVIHDLADAFMHIRFVLFISILS,72300
11,LLWGLALVCAFAFGRRRRRWWWWWWWWWLLLLLLLFIFFFWICLSLRFLLWTR,54100
12,LLWSYLLPLFFSLLNELCKRFLPFPLFPLFFYIPCAFYPSPTLSVCSHPLLFI,61500
13,LLYALMNFSRIFSSGHSFGRKIIMFFEFVYLLLNFLFGFVSLGHFYFAFHFLI,37000
14,LLYCNQIYLICPYVVNNKVQRQVSPRDMLIVLEAALKITSIYKILTYVYFENI,58700
15,LLYHYPMCSVCVLCCVLFFSHLFSIFHVLSVLCCTFFWQCLSFFHYLIPLFLY,62300
16,LLYLCRDILMAVFAWSLAIQIDPFFTNVVIRSILSPTIAKTFRWMSWCVYWWF,57700
17,LLYLGCRWCTLIAIIFHFLGFDGGHRIDCQFMGYFSFTCASALIVLRIVAFWA,66900
18,LLYLLLLLRKVSVMLCFIDLLIFGIFLCFLSLLLFLSLFFLFLFLLVFSEEFF,37600
19,LLYLPAVLEIYQDVHRSDLSSTVSWETFVAKIFEWMELQYVWPIAGKLLVTIF,74800
